# Source: the DeepSol protein solubility set
# Experiment: soluble on expression in E. coli; label from the status in PepcDB or PDB records
row,Sequence,soluble on expression in E. coli
1,MVRPRTIDRERLLDIAESIISEAGAVTISFGGLAEAAGLSKASVQSVFGTREAMMEALLERWLRKEQRAYQKKIGPQSSLRERVRRHVKITGKESSEANSRLAAVLTALVGSDATEGVMAKWYASRVGKFSAETQEERLLRIAFLAAEGAFFMRHVAGFPMSDRLWRELFHDLLDFVAEPVGGAARSAA,not soluble
2,SPFDANKLYCSEVLAILLQDNDENRELLGELDGIDVLLQQLSVFKRHNPSTAEEQEMMENLFDSLCSCLMLSSNRERFLKGEGLQLMNLMLREKKISRSSALKVLDHAMIGPEGTDNCHKFVDILGLRTIFPLFMKSPRKIKKVGTTEKEHEEHVCSILASLLRNLRGQQRTRLLNKFTENDSEKVDRLMELHFKYLGAMQVADKKIEGEKHDMVRRGEIIDNDTEEEFYLRRLDAGLFVLQHICYIMAEICNANVPQIRQRVHQILNMRGSSIKIVRHIIKEYAENIGDGRSPEFRENEQKRILGLLENF,not soluble
3,MNEQPAACRIKVEALGAGFAPAAEQWAERLGLALQVDEAEFALQVGEQGLQLQQLGPDAPGPVRVDFVEGGAAHRRLYGGGSGQMIAKAVGVAQGVRPRVLDATAGLGKDGFVLATLGCEMSLIERQPLIGALLEDGLARAAQDAEVGPIVARMHLLKGNSIELMRNWQGEPPQVIYLDPMFPHREKSALVKKEMRLFRPLVGDDNDAPALLAAALALASHRVVVKRPRKAPCIEGPKPSHGLEGKSSRYDIYPKKALKALEHHHHHH,not soluble
4,MGSDKIHHHHHHMSNFLLEAGRQTLMLELQEASRLPERLGDDFIRAAETIIHCEGKLIVSGIGKSGHIGKKLAATFASTGTPAFFVHPAEALHGDLGMLDSRDVMLFISYSGSAKELDLIVPRLEEKGIPLLAMTGKSTSPLALAAKAVLDIAVEREACPMHLAPTSSTVNTLMLGDALAMAVMQARGFNEEDFARSHPAGALGARLLNKVHHLMRRDEEVPRVNTEANVMDAMLELSRTGLGLVAVCDEANRVQGVFTDGDLRRWLVAGGTLNDGVTRAMTRNGVTLQADSRAVEAKERLMKHKISAAPVVDENGQLVGAINLQNFYQAGIL,not soluble
5,MLEHGGRLREAARRYDIPLADWLDLSTGIAPWPFSLPAIPEQAWTRLPESDDGLEAAACLYYGAERVLPLAGSQAAIQALPRMRRGGRVGVLSPCYAEHAHAWRQAGHLVREIGEAEVEPYLDSLDVLLVVNPNNPTGRVFEPAELLAWHARLQRRGGWLLVDEAFMDCTPQSSLAACSNRPGLIVLRSFGKFFGLAGARLGFALGERPLLQALAEQLGPWTVNGPVRHVAQSALRDRQQQRQQRERLLAASQRLEELLRRHGWPPAGGSALFQRLVDPRCAALHDYLARRGILTRQFEQPASLRLGLPADEAAWARLDAALLGFKEPAHE,not soluble
6,MYSPESMNSNISSPSPPSSSSLNAPSLADAPEVRSDDGEAETSEPSTSVTAVPMEIVSQASTSAPVNQLLASGIDMSSVIKNNAVLQALLASASAGGFGDNAGLTMSKLLTAALANGSTAVAKRDAGSPRTDIPKKTRLKVFSNGFFMTFDKLSSCQKKYFWRCEYKNTCKARMHTDIVTEKILTFIHEHNHSAPIDEEVRLYGLDPTNIERNRVYIVGNVADPNQRRKIRKQVADREAAAKRLVQQQEEEQQKQQSASSIVAARAAYAQAMQNGSIPTSSGVASFLQSTSATAPMTSHSMLLAQMPFLNNIKTEMSNMVKNEQFTPERYTQHMSPNLPLQTATIAPLIIPTENYDSPSYRQPAIKRKATDLTNEEHDLRRDPMFQPTFELARKLRKLWKGEPNRYPRTTTTPTHHFEFFLSKNDGTDEHLYVPMRINLRDEAHLKEALQDFCGQQCIGMLLFGISPKISVMFNQPMLNNWDNNQFFLLDISNPSRWRLMYVDDQAV,not soluble
7,AHHHHHHGSIDLILLAGKLKRIPRMGWLIKGVPNPESVADHSYRVAFITLLLAEELKKKGVEIDVEKALKIAIIHDLGEAIITDLPLSAQKYLNKEEAEAKALKDVLPEYTELFEEYSKALTLEGQLVKIADKLDMIIQAYEYELSGAKNLSEFWNALEDLEKLEISRYLREIIEEVRRLKDDH,soluble
8,SNAEWESITPPVVDAPAVVEFFSFYCPPCYAFSQTMGVDQAIRHVLPQGSRMVKYHVSLLGPLGHELTRAWALAMVMKETDVIEKAFFTAGMVEKRLHSPDDVRRVFMSATGISRGEYDRSIKSPAVNDMVALQERLFKEYGVRGTPSVYVRGRYHINNAAFGAFSVENFRSRYAAVVRKLLAGNPDAD,soluble
9,MDTLFSLKVFRQVVQSGGFTRAADALGISTAMASKHVSHLENTVQAKLLHRNSRNLSLTEAGEEYYRQCSYALDTLDDAAQKAAGGTEKPQGLLRVTMPLWFAGSQICNWLAEYRERYPEVALELILDNRHVDLIAEGVDLALRVSQTLSPSLIARPLAEIEFALLASPDFLRRNGVPETPEEVAGLPAVLPTYTNQQKLDLTRKSDGKKYRLELTPVIRTDNTLMMREMIKAGACIGYQPLWAAEHDLRCGTLVRLLPGYAVPTDRLNAVYADRAFLSAKVRSFIDFLNEKIASRKGCRNAV,not soluble
10,RSFDTKQEHGISPKPTYSRIKANYFSFGYFVGRVLPYQLFDLSRIPAFKQPAPSKIGQGSVQNIVLIMGESESAAHLKLFGYGRETSPFLTRLSQADFKPIVKQS,not soluble
11,MHHHHHHSSGRENLYFQGESTRRLILVGRTGAGKSATGNSILGQRRFFSRLGATSVTRACTTGSRRWDKCHVEVVDTPDIFSSQVSKTDPGCEERGHCYLLSAPGPHALLLVTQLGRFTAQDQQAVRQVRDMFGEDVLKWMVIVFTRKEDLAGGSLHDYVSNTENRALRELVAECGGRVCAFDNRATGREQEAQVEQLLGMVEGLVLEHKGAHYSNEVYELAQVLRWAGPEERLRRVAERVAARVQR,soluble
12,MGSDKIHHHHHHMGTDPIEARFEQLNVWRNGDKRAPHKPLLILLALASWQRGAREMRFAECEQKLGELIREFGPAAKAVHPEYPFWRLQNDGLWVVEADQEMRTRQSNSDPLKSELRAAGARGHFFADVAEELERRPALIGRVAQRVLDAHFPETLHEDILAAVGLEVSEETESTTRRRRDPNFRNAVLQAYQYRCAVCELDLRIGSITVGLEAAHVKWHQARGPDAVHNGVALCSLHHKLFDLGAFHIGADRRILVSEQVHGTSRFEEVLLRHHGALALEPVRSEHKVLRDFVGWHFDQVFKKEARPAT,not soluble
13,SSRSGTDPQQRQQASEADAAAATFRANDHQHIRYNPLQDEWVLVSAHRMKRPWQGQVEPQLLKTVPRHDPLNPLCPGAIRANGEVNPQYDSTFLFDNDFPALQPDAPSPGPSDHPLFQAKSARGVCKVMCFHPWSDVTLPLMSVPEIRAVVDAWASVTEELGAQYPWVQIFENKGAMMGCSNPHPHCQVWASSFLPDIAQREERSQQAYKSQHGEPLLMEYSRQELLRKERLVLTSEHWLVLVPFWATWPYQTLLLPRRHVRRLPELTPAERDDLASIMKKLLTKYDNLFETSFPYSMGWHGAPTGSEAGANWDHWQLHAHYYPPLLRSATVRKFMVGYEMLAQAQRDLTPEQAAERLRALPEVHYHLGQKDRETATIA,not soluble
14,MGDDEARSWIRGDETAKQMLSRVLKDRAFLLIPPLHRVPLRAGNVVEITGASTSAKTQILIQAAISCILPKTWNGIHYGGLGKLVLFLDLDCRFDVLRLSQMLKHRLLQANWLGNGAWWQLEESNVKSCKSAEEKTKTVFDEELYASCMKRFLYVRCYDSLELLSSLKTLHYRIQQQEACGSQVGVLMIDSIGAFHWTDRLSSSLALETHNRKSLSLTNVVETIVQELKKLLLVHSLVVLATKGTIYEEKYPANENNRKVSSNDHFSGNVASKAQQPPFREFMPSSWQAFVTHKIIIRKSADYQSLQTGQQNLLAYSLEWLQPQLSRIDRFIVDDVRKLTTIKPFYSKLLLIYIVIPASSSHAVWYCHCLVT,soluble
